Four molecules from patent US20180010140A1 (WASHINGTON STATE UNIVERSITY, published 2018) can be followed below.

B2: WRI1 (At3 g54320), yeast two-hybrid construct (other, Arabidopsis thaliana, UniProt Q6X5Y6 1-430, looked up)
chain: MKKRLTTSTCSSSPSSSVSSSTTTSSPIQSEAPRPKRAKRAKKSSPSGDKSHNPTSPASTRRSSIYRGVTRHRWTGRFEAHLWDKSSWNSIQNKKGKQVYLGAYDSEEAAAHTYDLAALKYWGPDTILNFPAETYTKELEEMQRVTKEEYLASLRRQSSGFSRGVSKYRGVARHHHNGRWEARIGRVFGNKYLYLGTYNTQEEAAAAYDMAAIEYRGANAVTNFDISNYIDRLKKKGVFPFPVNQANHQEGILVEAKQEVETREAKEEPREEVKQQYVEEPPQEEEEKEEEKAEQQEAEIVGYSEEAAVVNCCIDSSTIMEMDRCGDNNELAWNFCMMDTGFSPFLTDQNLANENPIEYPELFNELAFEDNIDFMFDDGKHECLNLENLDCCVVGRESPPSSSSPLSCLSTDSASSTTTTTTSVSCNYLV
notes: Yeast two-hybrid fusion (bait pBTM116-D9 against BPM1 as prey; both bait and prey in the self-assembly test); also called WRINKLED1

Common to all, as to assay: yeast two-hybrid
Series [1] has as its target B2.
Experimental: (§1) If not otherwise stated in this and subsequent FIGS. 30 μg of total protein extract were loaded as input, and experiments were done with 14-days old seedlings.
(§2) SDII selection medium supplemented with uracil and His was used as a transformation control, while for interaction studies, SDIV minimal medium was chosen without uracil and His supplements. Photos were taken from single spots 7 days after plating. […] Extraction and washing buffers contained at all times 1 mM PMSF (Sigma-Aldrich) and 10 μM MG132 (Sigma-Aldrich) to prevent proteolytic and proteasomal activities, respectively. […] In general, proteins were incubated at least 1.5 h at 4° C. under shaking conditions before being centrifuged.
The series “yeast two-hybrid” deals with the molecule itself.
Experimental: as §1, §2
The target in series [2] is T1, BPM4 (At3 g03740), yeast two-hybrid construct (Arabidopsis thaliana, UniProt Q9SRV1 1-465, limits assumed).
T1 construct: Yeast two-hybrid fusion
T1 sequence (looked up): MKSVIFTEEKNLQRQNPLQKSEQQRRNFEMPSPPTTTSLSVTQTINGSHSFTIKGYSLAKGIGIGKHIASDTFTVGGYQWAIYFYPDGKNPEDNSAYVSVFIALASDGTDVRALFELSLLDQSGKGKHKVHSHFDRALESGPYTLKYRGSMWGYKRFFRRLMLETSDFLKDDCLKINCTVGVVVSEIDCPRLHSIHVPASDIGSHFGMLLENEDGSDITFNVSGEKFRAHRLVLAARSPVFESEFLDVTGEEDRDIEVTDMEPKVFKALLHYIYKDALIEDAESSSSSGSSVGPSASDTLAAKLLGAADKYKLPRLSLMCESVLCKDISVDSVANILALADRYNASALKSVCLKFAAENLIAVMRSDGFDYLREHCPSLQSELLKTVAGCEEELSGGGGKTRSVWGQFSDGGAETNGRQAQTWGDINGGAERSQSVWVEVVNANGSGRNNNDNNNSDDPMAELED
Experimental: as §1, §2

B1: BPM3 (At2 g39760), yeast two-hybrid construct (other)
chain: MSTVGGIEQLIPDSVSTSFIETVNGSHQFTIQGYSLAKGMSPGKFIQSDIFSVGGYDWAIYFYPDGKNPEDQSSYISLFIALASDSNDIRALFELTLMDQSGKGKHKVHSHFDRALEGGPYTLKYKGSMWGYKRFFKRSALETSDYLKDDCLVINCTVGVVRARLEGPKQYGIVLPLSNMGQGLKDLLDSEVGCDIAFQVGDETYKAHKLILAARSPVFRAQFFGPIGNNNVDRIVIDDIEPSIFKAMLSFIYTDVLPNVHEITGSTSASSFTNMIQHLLAAADLYDLARLKILCEVLLCEKLDVDNVATTLALAEQHQFLQLKAFCLEFVASPANLGAVMKSEGFKHLKQSCPTLLSELLNTVAAADKSSTSGQSNKKRSASSVLGCDTTNVRQLRRRTRKEVRAVS
notes: Yeast two-hybrid fusion (pACT2 or pBTM116-D9)
B1: the binding result in series [1] is “binds”. With B2, the binding result (in “yeast two-hybrid”; in series [2]) was “binds” each time.

B3: BPM5 (At5 g21010), yeast two-hybrid construct (other, Arabidopsis thaliana, UniProt Q1EBV6 1-410, looked up)
chain: MSESVIQGSNPDRVLSPTSSKSVTQTVNGSHQFVIQGYSLAKGMGIGKHIASDNFSVGGYQWGIFFYPDGKNPEDNSSYVSVFIALASEGTEVRALFELALVDQSGKGKHKVHSHFERSLDGGPYTLKYRGSMWGYKRFFRRSILETSDYLKDDCLIINCTVGVVVSEILCPQLHSVHVPDSELGSHFGVLLDSMEGSDITFNIAGEKFLAHKLVLAARSPFFKSKFFSEFEANNTEVTINDLEPKVFKALLQFMYKDSLPEDVEPATAHTFERLKLSEIYETLIVKVLAAADKYDLIRLRLLCESHICKGVSVKSVAKILALADRYNAKELKGVCLKFTAENLAAVLETDAYQQMKDECVTLQSELLKAVAGHEEGSNSTGGAKSQSVWAQLSDGGGDTTSRHVRQRTT
notes: Yeast two-hybrid fusion
On to B3, for which the binding result in series [1] is “binds”.

B4: BPM1 (At5 g19000), yeast two-hybrid construct (other, Arabidopsis thaliana, UniProt Q8L765 1-407, looked up)
chain: MGTTRVCSEVSSGSSKSLSQSLTVSTSTTETVNGFHEFKICGYSLAKGVGVGKYVASDTFMVGGYSWAIYFYPDGKSPEDNSSYVSLFIALASEGADVRALFELTLVDQSGNGKHKVHSHFGRALDSGPYTLKYRGSMWGYKRFFRRSSLESSDYLKENSLLVRCRVGVVKSVTEGPRYYNIPVPVSNLGQQLGNLLESGKGCDVVFQVDGETFNAHKLVLATRSPVFNAQLFGPLGDRNTKCITIEDMEAPIFKVLLHFIYWDELPDMQELIGTDSTLASTLVAQHLLAAADRYALERLKAICESKLCEGVAINTVATTLALAEQHHCLQLKAVCLKFVALPENLKAVMQTDGFDYLKESCPSLLTELLQYVARLSEHSVIVSGHRKEIFADGCDASGRRVKPRLH
notes: also called BTB/POZ-MATH protein 1
On to B4, for which the binding result in series [1] is reported as “binds”.
